Data taken from article PMC6019534.

Target: MbnN from Methylosinus trichosporium OB3b, tagless (C-terminal His6 tag removed by TEV protease) (Methylosinus trichosporium OB3b)
Test: native gel or EMSA

Substance: MbnN from Methylosinus trichosporium OB3b, tagless (C-terminal His6 tag removed by TEV protease) (enzyme)
- stoichiometry N: 2
